Assay results: US20260184780A1 (MONASH UNIVERSITY, published 2026)
Positions count from the first letter of the chain named. Each block holds one binder with its values, some of them ahead of it.

Legend:
[1] = target: T1, hPAR4 (naked) peptide (human); experiment: ELISA, purified mAb on hPAR4 peptide
T1 construct: also called native PAR4 peptide; hPAR4 peptide
T1 peptide: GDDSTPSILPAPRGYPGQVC

[2] = target: T2, hPAR2 (Biotin) peptide (human, not fully specified; biotin on the C-terminal lysine (SKB)); experiment: ELISA, biotinylated peptide on streptavidin plate, absorbance 405 nm
T2 construct: also called PAR2 peptide; PAR2 screening peptide
T2 peptide: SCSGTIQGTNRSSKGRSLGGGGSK
Experimental: (§1) Biotinylated peptides (hPAR1-4) were diluted in Wash buffer and allowed to bind to the blocked Streptavidin coated wells at 10 ug/ml (100 ul per well) for 1 hour at room temperature with gentle mixing. Wells were washed 3 times as above and purified anti-hPAR4 mAbs prepared at 10 ug/ml in Wash buffer were allowed to bind (100 ul/well) for 1 hour at room temperature with gentle mixing. The plate was washed 3 times as above and anti-mouse Fc conjugated to Alkaline phosphatase (AP) at 0.3 ug/ml (100 ul) was added to the wells for 1 hour as above. Wells were washed 3 times as above and developed with Alkaline Phosphatase substrate as described for the screening supernatant ELISA.
(§2) To further characterise the purified anti-hPAR4 mAb's the specificity of the mAbs to hPAR1, hPAR2, hPAR3 and hPAR4 biotinylated peptides was performed.

[3] = target: T3, hPAR1 (Biotin) peptide (human, not fully specified; biotin on the C-terminal lysine (SKB)); experiment: as above
T3 construct: also called PAR1 peptide; PAR1 screening peptide
T3 peptide: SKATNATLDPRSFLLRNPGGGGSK
Experimental: as §1, §2

[4] = target: T4, hPAR3 (Biotin) peptide (human, biotin on the C-terminal lysine (SKB)); experiment: as above
T4 construct: also called PAR3 peptide; PAR3 screening peptide
T4 peptide: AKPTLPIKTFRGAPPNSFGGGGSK
Experimental: as §1, §2

[5] = target: T5, hPAR4 (Biotin) peptide (human, biotin on the C-terminal lysine (SKB)); experiment: SPR Biacore T200, biotin peptide on SA chip, whole mAb as analyte
T5 construct: also called hPAR4-biotinylated peptide; biotin-coupled human PAR4 peptide
T5 peptide: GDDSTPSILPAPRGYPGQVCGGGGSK
Experimental: (§3) The kinetics of the binding interaction between the mAbs and hPAR4 was measured using Surface Plasmon Resonance (SPR; Biacore) by two different methods: 1. Anti-mouse Fc mAb capture method and 2. Streptavidin (SA) chip to capture biotinylated peptide. The ka(on) rate and kd(off) rates and KD were measured and fitted to a Langmuir model using the Biacore evaluation software.

[6] = target: T1, hPAR4 (naked) peptide; experiment: SPR Biacore T200, mAb captured by anti-mouse Fc, hPAR4 peptide as analyte
Experimental: A series S CM5 sensor chip was activated with standard EDC/NHS amine coupling chemistry using the manufacturers recommended protocol with Goat anti-mouse IgG Fc. Anti-hPAR4 mAbs were captured at 1-2 ug/ml for 2 minutes at 10 ul/minute on flow cell 2 (FC2) and flow cell 1 (FC1) was used as a reference channel. […] Blank injections of buffer alone were also performed. All injections were performed in duplicate and in a random order.
as §3

[7] = target: T6, human PAR4 on isolated human platelets (human, UniProt Q96RI0 18-385); experiment: cell-based or functional assay
T6 sequence: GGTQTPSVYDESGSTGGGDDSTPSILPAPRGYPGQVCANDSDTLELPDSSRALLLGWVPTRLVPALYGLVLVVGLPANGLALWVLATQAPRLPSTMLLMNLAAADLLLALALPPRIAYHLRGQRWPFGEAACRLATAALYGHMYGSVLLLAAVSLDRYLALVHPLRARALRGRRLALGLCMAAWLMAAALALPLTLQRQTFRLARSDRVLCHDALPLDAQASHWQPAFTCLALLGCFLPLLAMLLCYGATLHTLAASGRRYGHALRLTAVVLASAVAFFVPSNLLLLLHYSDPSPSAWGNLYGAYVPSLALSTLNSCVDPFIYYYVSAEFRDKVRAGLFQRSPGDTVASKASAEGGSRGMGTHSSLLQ

[8] = target: T1, hPAR4 (naked) peptide; experiment: ELISA, hybridoma supernatant
[9] = target: T7, mPAR4 (naked) peptide (mouse); experiment: ELISA, hybridoma supernatant
T7 construct: T0021 says only 'mouse PAR4'; also called mouse PAR4
T7 peptide: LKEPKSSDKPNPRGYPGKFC

[10] = target: T3, hPAR1 (Biotin) peptide; experiment: ELISA, hybridoma supernatant
[11] = target: T4, hPAR3 (Biotin) peptide; experiment: ELISA, hybridoma supernatant
[12] = target: T8, hPAR4 11-20 peptide (human); experiment: ELISA, peptide coated on the plate, purified mAb, background subtracted
T8 construct: Range counted on the hPAR4 immunising peptide; the C-terminal cysteine was removed, so nine residues are given; also called peptide 11-20
T8 peptide: APRGYPGQV
Experimental: (§4) Briefly the peptides were coated onto a Nunc maxisorp ELISA plate at 10 ug/ml overnight in coating buffer (0.1 M sodium carbonate pH8.0). Purified mAbs diluted in PBS were used in place of supernatant.

[13] = target: T9, hPAR4 1-9 peptide (human); experiment: as above
T9 construct: Range counted on the hPAR4 immunising peptide; also called peptide 1-9
T9 peptide: GDDSTPSIL
Experimental: as §4

[14] = target: T6, human PAR4 on isolated human platelets; experiment: flow cytometry on isolated human platelets

B1: 5H.RF2.A5b.D3.C2 (antibody, IgG2a, V domains shown)
VH: QVQLQQWGAGLLKPSETLALTCAVYGGSLSDYYWSWIRQPPGKGLEWIGEINHSGTTNYNPSLKSRVTISVDTSKKQFSLKLSSVTAADTAVYYCAIEYSNSRGYYYGMDVWGQGTTVTVSS
VL: DIQMTQSPSSLSASAGDRITITCRASQTISNYLNWYQQKPGKAPKLLIYAASSLQSGVPSRFSGSGSGTDFTLTISSLQPEDFASYYCRQNYNTPLTFGGGTKVEIK
notes: also called MoB5H F2
ELISA Pos:Neg ratio [1]: 8.5 ratio | binding result [2]: no binding (tested: 10 ug/ml) | binding result [3]: no binding (tested: 10 ug/ml) | binding result [4]: no binding (tested: 10 ug/ml) | Kd [5]: 0.61 nM | koff [5]: 0.00111 s⁻¹ | kon [5]: 1.84e+06 M⁻¹ s⁻¹ | Kd [6]: 38 nM | koff [6]: 0.00227 s⁻¹ | kon [6]: 58400 M⁻¹ s⁻¹ | platelet aggregation, % of control [7]: > 80 % of control | fold binding native vs KLH-linked PAR4 peptide [8]: 11.9 fold | binding to mouse PAR4 ratio [9]: 10.4 ratio | binding to PAR1 ratio [10]: 1 ratio | binding to PAR3 ratio [11]: 0.9 ratio

B4: 5G.RA1.E10.G3 (antibody, IgG2a, V domains shown)
VH: QVQLVESGGGVVQPGRSLRLSCAASGFTFSSYGMHWVRQAPGKGLEWVAVIWYDGSNKYYADSVKGRFTISRDNSKNTLYLQMNSLRAEDTAVYYCARETALVRGVPFDYWGQGTLVTVSS
VL: not shown
notes: also called MoB5G A1
binding result [12]: no binding | binding result [13]: no binding | binding result [2]: no binding (tested: 10 ug/ml) | binding result [3]: no binding (tested: 10 ug/ml) | binding result [4]: no binding (tested: 10 ug/ml) | GMFI at 10 ug/ml over isotype control [14]: 25

B5: 5G RG1.D3.C2b (antibody, IgG1, V domains shown)
VH: B4 VH with A23V, F29L, N57S, A61T, T69D, S85I, A101I, V103I, R104G
VL: EIVLTQSPGTLSLSPGERATLSCGASQSIRSNYLAWYQQKPGQAPRLLIYGASSRATGTPDRFSGSGSGTDFTLTITRLEPEDFALYYCQQYGRSYTFGQGTKLEIK
notes: also called MoB5G G1
platelet aggregation, % of control [7]: < 25 % of control | fold binding native vs KLH-linked PAR4 peptide [8]: 11.1 fold | binding to mouse PAR4 ratio [9]: 8.6 ratio | binding to PAR1 ratio [10]: 1.1 ratio | binding to PAR3 ratio [11]: 0.8 ratio

B8: 5H.RA3.D3b.A2b (antibody, IgG2a, V domains shown)
VH: QVQLVESGGGVVQPGRSLRVSCAASGFTFSSYGMLWVRQAPGKGLEWVAVIWYDGTKKYYADSLKGRFTISRDNSKYTLYLQMNSLRADDTALYFCARKGARGITGLDYWGQGTLVTVSS
VL: not shown
notes: also called MoB5H A3
binding result [2]: no binding (tested: 10 ug/ml) | binding result [3]: no binding (tested: 10 ug/ml) | binding result [4]: no binding (tested: 10 ug/ml) | GMFI at 10 ug/ml over isotype control [14]: 100 | platelet aggregation, % of control [7]: < 25 % of control

B10: 5H.RD2.A7b (antibody, IgG1, V domains shown)
VH: EVQLVESGGDLVKPGGSLRLSCSASGFTFFNTWMNWVRQAPGKGLEWVGRVKSKNDGGTKDYAAPVTGRFTISRDDSKDTLYLQMNSLKTEDTAVYYCTTDPHYDFWSAYWGQGTLVTVSS
VL: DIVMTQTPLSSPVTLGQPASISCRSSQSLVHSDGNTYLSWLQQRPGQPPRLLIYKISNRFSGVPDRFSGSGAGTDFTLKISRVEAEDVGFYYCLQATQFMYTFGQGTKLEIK
notes: also called MoB5H-RD2.A7b; MoB5H D2
platelet aggregation, % of control [7]: > 80 % of control | fold binding native vs KLH-linked PAR4 peptide [8]: 6 fold | binding to mouse PAR4 ratio [9]: 6.2 ratio | binding to PAR1 ratio [10]: 1 ratio | binding to PAR3 ratio [11]: 0.9 ratio

Other lines, results leading:

platelet aggregation, % of control [7]: > 80 % of control
B2: 5H RG4.H7b.F5b (antibody, IgG2a, V domains shown)
VH: QVQLVQSGAEVKKPGASVKVSCKASGYTFTGHYFHWVRQAPGQGLEWMGWINPNSGGTNFAQRFQGRVTMTRVTSISTAYMELSGLRSDDTAVYYCARGYYDTSGYYYAFEFWGQGTLVIVSS
VL: not shown

ELISA Pos:Neg ratio [1]: 6.3 ratio | binding result [2]: no binding (tested: 10 ug/ml) | binding result [3]: no binding (tested: 10 ug/ml) | binding result [4]: no binding (tested: 10 ug/ml) | Kd [5]: 0.36 nM | koff [5]: 0.000667 s⁻¹ | kon [5]: 1.85e+06 M⁻¹ s⁻¹ | Kd [6]: 105 nM | koff [6]: 0.00146 s⁻¹ | kon [6]: 14000 M⁻¹ s⁻¹ | fold binding native vs KLH-linked PAR4 peptide [8]: 9.2 fold | binding to mouse PAR4 ratio [9]: 9.4 ratio | binding to PAR1 ratio [10]: 1 ratio | binding to PAR3 ratio [11]: 1 ratio
B3: 5I.RG1.D6.C1b (antibody, IgG3, V domains shown)
VH: QVQLQQWGAGLLKPSETLSLACAISSGSFSTYFWRWIRQPPGKGLEWIGEIIHTGSTTYNPSLKSRVTISVDTSKNQLSLKLSSVTAADTAVYYCAFEYSSSGGYYYGMDVWGQGTTVTVSS
VL: DIQMTQSPSSLSASVGDRVTITCRASQSISSYLNWYQQIPGKAPNLLIYAASSLRSGVPSRFSGSGSGTDFTLTISSLQPEDFATYYCQQTYSTPLTFGGGTKVEIK
notes: also called 51.RG1; MoB5I G1

platelet aggregation, % of control [7]: > 80 % of control
B6: 5G RD6.D1.E11b (antibody, IgG2a, V domains shown)
VH: B4 VH with T28A, K58R, N74T, Y80F, L102M
VL: not shown

binding result [12]: no binding | binding result [13]: no binding | binding result [2]: no binding (tested: 10 ug/ml) | binding result [3]: no binding (tested: 10 ug/ml) | binding result [4]: no binding (tested: 10 ug/ml) | GMFI at 10 ug/ml over isotype control [14]: 33
B7: 5D.RH4.G7.E6.C7b.G7 (antibody, IgG2a, V domains shown)
VH: QIQLVESGGGVVQPGRSLRLSCAASGFTFSSDGMHWVRQAPGKGLEWVAVIWFDGRNKYYLDSVKGRFTISRDNSKNTLYLQMNSLRAEDTAVYYCARESSISTRPPFDYWGQGTLVTVSS
VL: not shown
notes: Human variable regions on mouse constant regions, IgG2a/K

fold binding native vs KLH-linked PAR4 peptide [8]: 12 fold | binding to mouse PAR4 ratio [9]: 12.2 ratio | binding to PAR1 ratio [10]: 1.1 ratio | binding to PAR3 ratio [11]: 0.8 ratio
B9: 5F RE6.D3.E7 (antibody, IgG2a, V domains shown)
VH: B8 VH with V5A, L35H
VL: B1 VL with T28S
notes: also called MoB5F E6
